Numbering of substitutions follows the chain as printed. Names may count otherwise.
How the values were obtained:
[1] = molecular target: the molecule itself; experiment: atomic force microscopy
[2] = molecular target: the molecule itself; experiment: SEC
[3] = molecular target: the molecule itself; experiment: crystal structure

B1: WHY2, Solanum tuberosum Whirly protein located in the mitochondria (natural protein, Solanum tuberosum (potato))
chain: ADAGKREGRVFAPYSVFKGKAALSAEPRLPTFNRLDSGGVKLNRRGVIMLTFWPSVGERKYDWEKRQLFALSATEVGSLISMGTRDSSEFFHDPSMLSSNAGQVRKSLSIKPNADGSGYFISLSVVNNNLKTNDRFTVPVTTAEFAVMRTAFSFALPHIMGWDRFTNRP
How did the “stoichiometry N” value [1] turn out when B1 was run?
Its value is 24.

What about the “stoichiometry N” value [2] of the same protein?
The value was 4.

B2: WHY2 K67A (natural protein, Solanum tuberosum (potato))
chain: B1 chain with K20A
For B2, which “stoichiometry N” value [3] is on record?
Its value is 24.

And the “stoichiometry N” value [2]?
Its value is 4.
